{"source": "paper PMC4346919", "about": "(2015)", "parents": {"B1": {"name": "biotin-labeled ALG-2 [modified: biotin-labeled; biotin-labeled] [human] / GST-SGG-linker-8xHis fused with the eight-residue Sec31A peptide (NPPPPGFI), wild type [human] (parent complex)", "chain 1": "MAAYSYRPGPGAGPGPAAGAALPDQSFLWNVFQRVDKDRSGVISDTELQQALSNGTWTPFNPVTVRSIISMFDRENKAGVNFSEFTGVWKYITDWQNVFRTYDRDNSGMIDKNELKQALSGFGYRLSDQFHDILIRKFDRQGRGQIAFDDFIQGCIVLQRLTDIFRRYDTDQDGWIQVSYEQYLSMVFSIV", "chain 2": "NPPPPGFI"}}, "data": [{"variants_of": "B1", "assay": "far-Western blot (FW), signal intensity measured with ImageJ; n = 4; read off a plot", "values": [{"variant": "chain 2 P4A", "percent of parent": "~42 % of WT"}, {"variant": "chain 2 P5L", "percent of parent": "~55 % of WT"}, {"variant": "chain 2 I8G", "percent of parent": "~9 % of WT"}, {"variant": "chain 2 N1P", "percent of parent": "~100 % of WT"}]}]}
